Source: publication PMC6784197

What was measured:
<Her2/neu> Hg-Lw = experiment: SPR; monovalent (affinity) set-up: antibody captured via anti-hFc on CM5 chip, huHer2 ECD as analyte 19-300 nM; Biacore T200, HBS-P+ pH 7.4, 25 °C; 1:1 Langmuir model
<Her2/neu> Ha-Lw = experiment: as above
<Her2/neu> Hg-Lg = experiment: as above
<Her2/neu> Hb-Lw = experiment: as above
<EGFR> Hw-La = experiment: SPR; monovalent (affinity) set-up: antibody captured via anti-hFc on CM5 chip, huEGFR ECD as analyte 19-300 nM; Biacore T200, HBS-P+ pH 7.4, 25 °C; 1:1 Langmuir model
<EGFR> Hb-Lw = experiment: as above
<EGFR> Ha-Lw = experiment: as above

Chain of <Her2/neu> Ha-Lw (heavy, as listed by the source, chain 1 of 2): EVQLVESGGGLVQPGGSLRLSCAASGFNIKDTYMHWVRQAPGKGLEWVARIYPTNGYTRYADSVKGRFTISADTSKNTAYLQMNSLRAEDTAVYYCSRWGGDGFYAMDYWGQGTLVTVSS
Chain of <Her2/neu> Ha-Lw (light, as listed by the source, chain 2 of 2): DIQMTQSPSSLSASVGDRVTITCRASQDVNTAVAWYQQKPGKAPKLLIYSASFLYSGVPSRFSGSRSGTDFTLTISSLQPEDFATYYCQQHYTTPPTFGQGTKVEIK
Chain of <Her2/neu> Hg-Lw (heavy, as listed by the source, chain 1 of 2): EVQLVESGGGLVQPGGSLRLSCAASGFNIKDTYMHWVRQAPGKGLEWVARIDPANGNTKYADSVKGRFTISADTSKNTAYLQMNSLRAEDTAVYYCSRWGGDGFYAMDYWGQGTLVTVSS
Chain of <Her2/neu> Hg-Lg (light, as listed by the source, chain 2 of 2): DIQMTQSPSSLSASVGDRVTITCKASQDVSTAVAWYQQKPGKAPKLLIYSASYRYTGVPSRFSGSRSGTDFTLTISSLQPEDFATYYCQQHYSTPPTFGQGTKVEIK
Chain of <Her2/neu> Hb-Lw (heavy, as listed by the source, chain 1 of 2): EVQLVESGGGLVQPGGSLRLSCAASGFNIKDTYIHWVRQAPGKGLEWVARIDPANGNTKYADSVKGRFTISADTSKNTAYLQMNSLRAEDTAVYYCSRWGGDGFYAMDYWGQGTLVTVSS

Substance	Kd (<Her2/neu> Hg-Lw) [nM]	Kd (<Her2/neu> Ha-Lw) [nM]	Kd (<Her2/neu> Hg-Lg) [nM]	Kd (<Her2/neu> Hb-Lw) [nM]	Kd (<EGFR> Hw-La) [nM]	Kd (<EGFR> Hb-Lw) [nM]	Kd (<EGFR> Ha-Lw) [nM]
huHer2 ECD (from UniProt P04626 23-652) (domain or fragment)	340	2.1	390	390			
huEGFR ECD (from UniProt P00533 25-645) (domain or fragment)					3.5	0.66	0.73
